Experiments:
Pot1pN = biological target: T1, Pot1pN (Schizosaccharomyces pombe, UniProt O13988 1-187); assay: NMR
T1 sequence: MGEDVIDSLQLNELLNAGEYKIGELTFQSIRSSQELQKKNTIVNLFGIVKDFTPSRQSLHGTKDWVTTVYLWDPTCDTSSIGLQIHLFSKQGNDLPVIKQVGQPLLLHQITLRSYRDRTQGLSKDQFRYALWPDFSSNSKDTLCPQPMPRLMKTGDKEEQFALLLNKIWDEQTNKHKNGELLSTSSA

Pot1-DBD_Y224A = biological target: T2, Pot1-DBD_Y224A (Schizosaccharomyces pombe, UniProt O13988 1-339, Y224A); assay: SEC-MALS
T2 sequence: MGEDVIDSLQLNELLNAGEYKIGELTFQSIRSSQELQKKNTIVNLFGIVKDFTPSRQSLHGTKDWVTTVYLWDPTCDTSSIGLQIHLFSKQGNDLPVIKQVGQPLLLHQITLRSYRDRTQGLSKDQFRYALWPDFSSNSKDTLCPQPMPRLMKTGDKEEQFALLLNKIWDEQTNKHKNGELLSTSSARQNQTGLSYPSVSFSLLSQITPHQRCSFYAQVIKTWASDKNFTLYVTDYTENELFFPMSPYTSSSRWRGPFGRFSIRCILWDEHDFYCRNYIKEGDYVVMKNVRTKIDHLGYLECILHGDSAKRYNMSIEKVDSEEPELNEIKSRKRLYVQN

Pot1-DBD [1] = biological target: T3, Pot1-DBD (Schizosaccharomyces pombe, UniProt O13988 1-339); assay: NMR
T3 sequence: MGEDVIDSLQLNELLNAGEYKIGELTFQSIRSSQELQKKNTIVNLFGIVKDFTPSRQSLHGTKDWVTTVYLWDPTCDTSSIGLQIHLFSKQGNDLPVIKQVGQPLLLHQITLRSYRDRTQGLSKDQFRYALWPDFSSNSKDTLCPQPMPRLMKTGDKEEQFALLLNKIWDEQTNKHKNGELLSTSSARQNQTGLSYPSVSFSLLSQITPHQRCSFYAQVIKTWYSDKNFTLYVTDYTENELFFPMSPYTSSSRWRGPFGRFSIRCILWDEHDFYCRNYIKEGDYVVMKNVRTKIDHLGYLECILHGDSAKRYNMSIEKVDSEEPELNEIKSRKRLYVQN

Pot1-DBD [2] = biological target: T3, Pot1-DBD; assay: SEC-MALS
Pot1-DBD [3] = biological target: T3, Pot1-DBD; assay: EMSA
Pot1-DBD [4] = biological target: T3, Pot1-DBD; assay: SEC-MALS; remark: listed apart in the source
Pot1pC = biological target: T4, Pot1pC (Schizosaccharomyces pombe, UniProt O13988 198-339); assay: NMR
T4 sequence: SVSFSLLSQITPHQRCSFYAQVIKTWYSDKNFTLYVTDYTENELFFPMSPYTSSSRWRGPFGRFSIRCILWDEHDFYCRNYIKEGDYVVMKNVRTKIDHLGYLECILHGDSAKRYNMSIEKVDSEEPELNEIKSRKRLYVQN

Pot1pC_Y224A = biological target: T5, Pot1pC_Y224A (Schizosaccharomyces pombe, UniProt O13988 198-339, Y224A); assay: ITC
T5 sequence: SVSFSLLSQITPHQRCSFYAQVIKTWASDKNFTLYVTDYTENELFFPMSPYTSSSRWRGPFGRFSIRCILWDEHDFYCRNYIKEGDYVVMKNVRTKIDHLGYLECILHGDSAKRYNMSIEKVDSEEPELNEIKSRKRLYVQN

GGTTAC (ssDNA) [6mer]: binds (Pot1pN).

GGTTACGGTTACGGT (ssDNA) [15mer]: binds (Pot1-DBD_Y224A); binds (Pot1-DBD [1]).

GGTTACGGTTACCGT (ssDNA) [15mer_G13C]: binds (Pot1-DBD [2]).

GGTTACGGTTAC (ssDNA) [12mer]: binds (Pot1-DBD [3]).

GGTTACGGATAC (ssDNA) [12mer_T9A]: binds (Pot1-DBD [4]).

With GGTTACGGT (ssDNA) [9mer] the binding result (Pot1pC) was “binds” and the binding signal (Pot1pC_Y224A) was ~10 fold weaker than Pot1pC wild type.

— PMC4150783
